From US20180044393A1 (INSERM INSTITUT NATIONAL DE LA SANT ET DE LA RECHERCHE M …, published 2018)
Numbering of substitutions follows the chain as printed. Positions of bridges follow the written chain, without caps; N, C: chain ends. No end group written: not given here. *: point of attachment. 125I = [125I]*

What was measured:
Test in all cases: 125I-OxA binding on CHO-S cells expressing the OX1R mutant
[1] = molecular target: T1, OX1R F340A (human, UniProt O43613 1-425)
T1 construct: site-directed mutant (TM7) stably expressed in CHO-S cells; not shown: YFP from vector pEYFP-N2 fused at the C-terminus
T1 chain: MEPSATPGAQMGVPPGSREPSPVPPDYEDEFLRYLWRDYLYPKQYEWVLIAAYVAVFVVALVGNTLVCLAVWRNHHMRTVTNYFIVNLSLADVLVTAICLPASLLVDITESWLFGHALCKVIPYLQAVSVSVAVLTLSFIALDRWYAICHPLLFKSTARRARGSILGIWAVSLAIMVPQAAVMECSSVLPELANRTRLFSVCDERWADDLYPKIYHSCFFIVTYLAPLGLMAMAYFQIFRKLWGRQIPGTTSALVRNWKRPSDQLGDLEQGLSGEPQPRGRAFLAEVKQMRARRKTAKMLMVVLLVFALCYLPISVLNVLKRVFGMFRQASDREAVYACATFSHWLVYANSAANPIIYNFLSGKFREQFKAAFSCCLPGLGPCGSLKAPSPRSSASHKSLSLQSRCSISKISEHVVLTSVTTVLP
Description: (§1) CHO—S cells expressing recombinant native or mutated OX1R were grown as previously described (El Firar et al., 2009) and maintained at 37° C. in a humidified 5% CO₂/air incubator. ¹²⁵I-orexia-A (74 TBq/mmol) was prepared as previously described (El Firar et al., 2009). […] Free peptides were removed by 2 cell washing cycles with PBS. […] Data were analyzed using the GraphPad software (http://www.graphpad.com).
(§2) All residues of OX1R fulfilling this condition were mutated to alanine by site-directed mutagenesis (Table II).

[2] = molecular target: T2, OX1R I98A (human, UniProt O43613 1-425)
T2 construct: site-directed mutant (TM2) stably expressed in CHO-S cells; not shown: YFP from vector pEYFP-N2 fused at the C-terminus
T2 chain: T1 chain with I98A, A340F
Description: as §1, §2

[3] = molecular target: T3, OX1R K321A (human, UniProt O43613 1-425)
T3 construct: site-directed mutant (TM6) stably expressed in CHO-S cells; not shown: YFP from vector pEYFP-N2 fused at the C-terminus
T3 chain: T1 chain with K321A, A340F
Description: as §1, §2

[4] = molecular target: T4, OX1R Y211A (human, UniProt O43613 1-425)
T4 construct: site-directed mutant (TM5) stably expressed in CHO-S cells; not shown: YFP from vector pEYFP-N2 fused at the C-terminus
T4 chain: T1 chain with Y211A, A340F
Description: as §1, §2

[5] = molecular target: T5, OX1R F220A (human, UniProt O43613 1-425)
T5 construct: site-directed mutant (TM5) stably expressed in CHO-S cells; not shown: YFP from vector pEYFP-N2 fused at the C-terminus
T5 chain: T1 chain with F220A, A340F
Description: as §1, §2

Measured: binding result

B1: 125I-orexin-A (peptide, UniProt O43612 34-66, looked up)
peptide: QPLPDCCRQKTCSCRLY(125I)ELLHGAGNHAAGILTL
modifications: disulfide 6-12, 7-14; not fully specified (residue 1, C-terminus)
notes: mature; also called OxA
binds: all assays above
